Positions count from the first letter of the chain named. Numbers in names are those of the source.
B1: wild-type PNGase F from Flavobacterium meningosepticum (protein)
chain: GIPAPADNTVNIKTFDKVKNAFGDGLSQSAEGTFTFPADVTAVKTIKMFIKNECPNKTCDEWDRYANVYVKNKTTGEWYEIGRFITPYWVGTEKLPRGLEIDVTDFKSLLSGNTELKIYTETWLAKGREYSVDFDIVYGTPDYKYSAVVPVVQYNKSSIDGVPYGKAHTLALKKNIQLPTNTEKAYLRTTISGWGHAKPYDAGSRGCAEWCFRTHTIAINNSNTFQHQLGALGCSANPINNQSPGNWTPDRAGWCPGMAVPTRIDVLNNSLIGSTFSYEYKFQNWTNNGTNGDAFYAISSFVIAKSNTPISAPVVTNLDPHHHHHH
B2: PNGase F D60A single point mutant (protein)
chain: B1 chain with D63A

Biological target: T1, denatured bovine pancreatic Ribonuclease B, P61823
T1 chain: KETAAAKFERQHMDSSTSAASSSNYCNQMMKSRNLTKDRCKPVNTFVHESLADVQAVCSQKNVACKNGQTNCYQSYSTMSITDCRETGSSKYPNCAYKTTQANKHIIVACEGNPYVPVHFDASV

Protein	Deglycosylation Activity on RNase B (gel shift assay)	N-glycanase activity assay (gel shift)
B1	100%	PNGase F completely de-glycosylates 1 µg of RNase B under the assay conditions described
B2	13.4%	

Source: US11001824
